Columns and labels:
[1] = biological target: Nipah virus (Malaysia strain) W protein, N-terminally hexahistidine tagged (from pDEST17OI/NiVW) (Nipah virus (Malaysia strain)) (UniProt P0C1C7); assay: MALDI-TOF MS of the intact protein
[2] = biological target: Nipah virus (Malaysia strain) W protein, N-terminally hexahistidine tagged (from pDEST17OI/NiVW) (Nipah virus (Malaysia strain)) (UniProt P0C1C7); assay: SEC
[3] = biological target: the molecule itself; assay: MALDI-TOF MS of the intact protein

Molecule	stoichiometry N [1]	stoichiometry N [2]	stoichiometry N [3]
Nipah virus (Malaysia strain) W protein, N-terminally hexahistidine tagged (from pDEST17OI/NiVW) (from UniProt P0C1C7 1-450) (natural protein)	2	2	–
Hendra virus W protein, N-terminally hexahistidine tagged (from pDEST17OI/HeVW) (natural protein, not shown: His6, N-terminal, kept) MDKLDLVNDGLDIIDFIQKNQKEIQKTYGRSSIQQPSTKDRTRAWEDFLQSTSGEHEQAEGGMPKNDGGTEGRNVEDLSSVTSSDGTIGQRVSNTRAWAEDPDDIQLDPMVTDVVYHDHGGECTGHGPSSSPERGWSYHMSGTHDGNVRAVPDTKVLPNAPKTTVPEEVREIDLIGLEDKFASAGLNPAAVPFVPKNQSTPTEEPPVIPEYYYGSGRRGDLSKSPPRGNVNLDSIKIYTSDDEDENQLEYEDEFAKSSSEVVIDTTPEDNDSINQEEVVGDPSDQGLEHPFPLGKFPEKEETPDVRRKDSLMQDSCKRGGVPKRLPMLSEEFECSGSDDPIIQELEREGSHPGGSLRLREPPQSSGNSRNQPDRQLKTGDAASPGGVQRPGTPMPKSRIMPIKKGAQTRSLNMLGRKTCLGRRVVQPGMFADYPPTKKARVLLRRMSN	–	–	2

From publication PMC8780864, “Experimental Evidence of Intrinsic Disorder and Amyloid Formation by the Henipavirus W Proteins” (International Journal of Molecular Sciences, 2022)
